Measurements from the supplement of paper PMC7877785.
± gives the uncertainty stated by the source.

Test: self-splicing fitness, log relative to wild type (ln ratio); higher = more splicing; Tetrahymena group I intron in knt gene, E. coli kanamycin selection, DiMSum; sequences stand for … in CUCUCU…GGAGGGAAAAGUUAUCAGGCAUGCACCUGGUAGCUAGUCUUUAAACCAAUAGAUUGCAUCGGUUUAAAAGGCAAGACCGUCAAAUUGCGGGAAAGGGGUCAACAGCCGUUCAGUACCAAGUCUCAGGGGAAACUUUGAGAUGGCCUUGCAAAGGGUAUGGUAAUAAGCUGACGGACAUGGUCCUAACCACGCAGCCAAGUCCUAAGUCAACAGAUCUUCUGUUGAUAUGGAUGCAGUUCACAGACUAAAUGUCGGUCGGGGAAGAUGUAUUCUUCUCAUAAGAUAUAGUCGGACCUCUCCUUAAUGGGAGCUAGCGGAUGAAGUGAUGCAACACUGGAGCCGCUGGGAACUAAUUUGUAUGCGAAAGUAUAUUGAUUAGUUUUGGAGUACUCGUGGUCG
How it was run: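 A randomised library covering all eight P1ex-region intron nucleotides was built with the intron in the knt kanamycin-resistance gene on pET-22b(+) and held in E. coli BL21(DE3). Cells were grown overnight at 37°C or 30°C on LB agar, with or without 25 μg/mL kanamycin, plus 100 μg/mL carbenicillin, 50 μM IPTG and 0.2% rhamnose, and pooled colonies were amplicon-sequenced on an Illumina HiSeq 2500. DiMSum fitness is the error-weighted combination of wild-type-normalised replicate fold changes, kanamycin versus none.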

Sequence: UAUGAGCAAUAUUACGGGGG
- self-splicing fitness (ln) (30 °C): -3.16 ± 0.26
- self-splicing fitness (ln) (37 °C): -2.31 ± 0.29

Sequence: UACAAGCAAUAUUACGGGUG
- self-splicing fitness (ln) (30 °C): -0.523 ± 0.04
- self-splicing fitness (ln) (37 °C): -0.55 ± 0.054

Sequence: GUUCAGCAAUAUUACGGCUC
- self-splicing fitness (ln) (30 °C): 0.0792 ± 0.12
- self-splicing fitness (ln) (37 °C): -0.018 ± 0.12

Sequence: CACCAGCAAUAUUACGCUCU
- self-splicing fitness (ln) (30 °C): -3.85 ± 0.2
- self-splicing fitness (ln) (37 °C): -1.48 ± 0.15

Sequence: AACUAGCAAUAUUACGGGAU
- self-splicing fitness (ln) (30 °C): -1.53 ± 0.079
- self-splicing fitness (ln) (37 °C): -0.855 ± 0.081

Sequence: GGUAAGCAAUAUUACGCUAC
- self-splicing fitness (ln) (30 °C): -2.3 ± 0.4
- self-splicing fitness (ln) (37 °C): -2.23 ± 0.37

Sequence: GUGAAGCAAUAUUACGACUA
- self-splicing fitness (ln) (30 °C): -0.0623 ± 0.096
- self-splicing fitness (ln) (37 °C): 0.462 ± 0.14

Sequence: AACUAGCAAUAUUACGCAGU
- self-splicing fitness (ln) (30 °C): -4.36 ± 0.41
- self-splicing fitness (ln) (37 °C): -1.96 ± 0.21

Sequence: GACCAGCAAUAUUACGUUCU
- self-splicing fitness (ln) (30 °C): -0.569 ± 0.078
- self-splicing fitness (ln) (37 °C): -0.975 ± 0.12

Sequence: AGGUAGCAAUAUUACGCAUC
- self-splicing fitness (ln) (30 °C): -3.221 ± 0.027
- self-splicing fitness (ln) (37 °C): -1.72 ± 0.038

Sequence: CCUGAGCAAUAUUACGCGGU
- self-splicing fitness (ln) (30 °C): -3.87 ± 0.21
- self-splicing fitness (ln) (37 °C): -1.54 ± 0.16

Sequence: CAGCAGCAAUAUUACGCUUU
- self-splicing fitness (ln) (30 °C): -2.76 ± 0.14
- self-splicing fitness (ln) (37 °C): -1.63 ± 0.12

Sequence: CACUAGCAAUAUUACGUAGG
- self-splicing fitness (ln) (30 °C): -1.04 ± 0.1
- self-splicing fitness (ln) (37 °C): -0.696 ± 0.14

Sequence: AAUCAGCAAUAUUACGAGCG
- self-splicing fitness (ln) (30 °C): -0.582 ± 0.063
- self-splicing fitness (ln) (37 °C): -0.11 ± 0.079

Sequence: AUUUAGCAAUAUUACGGCAU
- self-splicing fitness (ln) (30 °C): -0.0305 ± 0.11
- self-splicing fitness (ln) (37 °C): -0.15 ± 0.18

Sequence: ACAAAGCAAUAUUACGUAGU
- self-splicing fitness (ln) (30 °C): -2.57 ± 0.085
- self-splicing fitness (ln) (37 °C): -1.43 ± 0.095

Sequence: AGGUAGCAAUAUUACGGUGU
- self-splicing fitness (ln) (30 °C): -2.356 ± 0.015
- self-splicing fitness (ln) (37 °C): -1.01 ± 0.033

Sequence: GCUAAGCAAUAUUACGAAUC
- self-splicing fitness (ln) (30 °C): 0.136 ± 0.29
- self-splicing fitness (ln) (37 °C): -0.437 ± 0.35

Sequence: GUUCAGCAAUAUUACGACUG
- self-splicing fitness (ln) (30 °C): -3.57 ± 0.28
- self-splicing fitness (ln) (37 °C): -0.988 ± 0.14

Sequence: UUUCAGCAAUAUUACGAUGG
- self-splicing fitness (ln) (30 °C): -2.15 ± 0.14
- self-splicing fitness (ln) (37 °C): -0.745 ± 0.16

Sequence: CUCGAGCAAUAUUACGAGUU
- self-splicing fitness (ln) (37 °C): -2.42 ± 0.24

Sequence: AUGUAGCAAUAUUACGUUAC
- self-splicing fitness (ln) (30 °C): -4.22 ± 0.39
- self-splicing fitness (ln) (37 °C): -0.607 ± 0.2

Sequence: GCGUAGCAAUAUUACGGAGC
- self-splicing fitness (ln) (30 °C): -4.23 ± 0.28
- self-splicing fitness (ln) (37 °C): -3.03 ± 0.35

Sequence: CUACAGCAAUAUUACGAGAG
- self-splicing fitness (ln) (30 °C): -2.79 ± 0.16
- self-splicing fitness (ln) (37 °C): -2.21 ± 0.18

Sequence: UUUGAGCAAUAUUACGGGGG
- self-splicing fitness (ln) (30 °C): -1.96 ± 0.38

Sequence: GACCAGCAAUAUUACGCGGC
- self-splicing fitness (ln) (30 °C): -3 ± 0.25
- self-splicing fitness (ln) (37 °C): -2.3 ± 0.29

Sequence: UAGCAGCAAUAUUACGUCGG
- self-splicing fitness (ln) (30 °C): -0.706 ± 0.1
- self-splicing fitness (ln) (37 °C): -0.878 ± 0.13

Sequence: AAAAAGCAAUAUUACGAUAU
- self-splicing fitness (ln) (30 °C): -0.534 ± 0.061
- self-splicing fitness (ln) (37 °C): -0.545 ± 0.079

Sequence: GACUAGCAAUAUUACGUAGG
- self-splicing fitness (ln) (30 °C): -1.95 ± 0.091
- self-splicing fitness (ln) (37 °C): -1.03 ± 0.11

Sequence: CAGGAGCAAUAUUACGCCUA
- self-splicing fitness (ln) (30 °C): -0.617 ± 0.19
- self-splicing fitness (ln) (37 °C): -1.01 ± 0.21

Sequence: CAUUAGCAAUAUUACGUUAU
- self-splicing fitness (ln) (37 °C): -1.91 ± 0.22

Sequence: UCGUAGCAAUAUUACGGUAC
- self-splicing fitness (ln) (30 °C): -4.6 ± 0.46
- self-splicing fitness (ln) (37 °C): -3.01 ± 0.34

Sequence: AAUUAGCAAUAUUACGGUGC
- self-splicing fitness (ln) (30 °C): -2.19 ± 0.26
- self-splicing fitness (ln) (37 °C): -3 ± 0.43

Sequence: AGGAAGCAAUAUUACGUCGA
- self-splicing fitness (ln) (30 °C): -1.4 ± 0.16
- self-splicing fitness (ln) (37 °C): -0.922 ± 0.16

Sequence: UCCGAGCAAUAUUACGAAGC
- self-splicing fitness (ln) (37 °C): -1.15 ± 0.36

Sequence: AACGAGCAAUAUUACGCAUU
- self-splicing fitness (ln) (30 °C): -1.24 ± 0.12
- self-splicing fitness (ln) (37 °C): -2.9 ± 0.24

Sequence: AUGAAGCAAUAUUACGAGGU
- self-splicing fitness (ln) (30 °C): -3.32 ± 0.15
- self-splicing fitness (ln) (37 °C): -2.07 ± 0.18

Sequence: AGUUAGCAAUAUUACGUGAC
- self-splicing fitness (ln) (30 °C): -2.66 ± 0.24
- self-splicing fitness (ln) (37 °C): -2.9 ± 0.33

Sequence: UGGUAGCAAUAUUACGGCUC
- self-splicing fitness (ln) (30 °C): -0.912 ± 0.12
- self-splicing fitness (ln) (37 °C): -0.984 ± 0.14

Sequence: UCUCAGCAAUAUUACGUCGC
- self-splicing fitness (ln) (30 °C): -2.22 ± 0.23
- self-splicing fitness (ln) (37 °C): -2.47 ± 0.33

Sequence: CGCUAGCAAUAUUACGACUA
- self-splicing fitness (ln) (30 °C): -2.81 ± 0.16
- self-splicing fitness (ln) (37 °C): -2.52 ± 0.23

Sequence: GUCGAGCAAUAUUACGAGUA
- self-splicing fitness (ln) (30 °C): -2.24 ± 0.45
- self-splicing fitness (ln) (37 °C): -1.13 ± 0.25

Sequence: ACUAAGCAAUAUUACGGCCG
- self-splicing fitness (ln) (30 °C): -0.147 ± 0.087
- self-splicing fitness (ln) (37 °C): -0.306 ± 0.12

Sequence: GGACAGCAAUAUUACGGAUC
- self-splicing fitness (ln) (30 °C): -1.3 ± 0.11
- self-splicing fitness (ln) (37 °C): 0.26 ± 0.13

Sequence: GUGUAGCAAUAUUACGAUCC
- self-splicing fitness (ln) (30 °C): -0.838 ± 0.21
- self-splicing fitness (ln) (37 °C): -0.041 ± 0.46

Sequence: CCUGAGCAAUAUUACGCAGC
- self-splicing fitness (ln) (37 °C): -1.38 ± 0.3

Sequence: ACUCAGCAAUAUUACGUCAA
- self-splicing fitness (ln) (30 °C): -2.56 ± 0.1
- self-splicing fitness (ln) (37 °C): -1.78 ± 0.14

Sequence: UCUUAGCAAUAUUACGGCUG
- self-splicing fitness (ln) (30 °C): -2.71 ± 0.28
- self-splicing fitness (ln) (37 °C): 0.118 ± 0.24

Sequence: CUCAAGCAAUAUUACGGGUA
- self-splicing fitness (ln) (30 °C): -2.42 ± 0.14
- self-splicing fitness (ln) (37 °C): -1.01 ± 0.1
